Measured values as given in publication PMC10917784.

Target: Trastuzumab
Experiment: SPR; antibody constructs immobilised on a Protein L Series S CM5 chip, increasing concentrations of Fc receptor flushed; Biacore 8K+, 25 °C, neutral pH; steady state affinity model
Conditions: remark: other sources report otherwise

B1: human FcγRIIa ECD, P12318 34-217 (receptor)
chain: QAAAPPKAVLKLEPPWINVLQEDSVTLTCQGARSPESDSIQWFHNGNLIPTHTQPSYRFKANNNDSGEYTCQTGQTSLSDPVHLTVLSEWLVLQTPHLEFQEGETIMLRCHSWKDKPLVKVTFFQNGKSQKFSHLDPTFSIPQANHSHSGDYHCTGNIGYTLFSSKPVTITVQVPSMGSSSPMG
Question: Which Kd does the source give for B1 here?
Answer: 543 nM
